Reference: US20230398229A1, “ANTIBODY DRUG […] AGONISTS, COMBINATIONS AND METHODS OF USE” (Mersana Therapeutics, Inc., priority 2022, published 2023)

Tests used:
rat HER2 = rat HER2 (Rattus norvegicus, UniProt P06494); assay: Binding of antibody to rat HER2
HER2 = HER2 (Homo sapiens, UniProt P04626); assay: Inhibition of HER2 functional activity in vitro

rat HER2, sequence (P06494 23-1257): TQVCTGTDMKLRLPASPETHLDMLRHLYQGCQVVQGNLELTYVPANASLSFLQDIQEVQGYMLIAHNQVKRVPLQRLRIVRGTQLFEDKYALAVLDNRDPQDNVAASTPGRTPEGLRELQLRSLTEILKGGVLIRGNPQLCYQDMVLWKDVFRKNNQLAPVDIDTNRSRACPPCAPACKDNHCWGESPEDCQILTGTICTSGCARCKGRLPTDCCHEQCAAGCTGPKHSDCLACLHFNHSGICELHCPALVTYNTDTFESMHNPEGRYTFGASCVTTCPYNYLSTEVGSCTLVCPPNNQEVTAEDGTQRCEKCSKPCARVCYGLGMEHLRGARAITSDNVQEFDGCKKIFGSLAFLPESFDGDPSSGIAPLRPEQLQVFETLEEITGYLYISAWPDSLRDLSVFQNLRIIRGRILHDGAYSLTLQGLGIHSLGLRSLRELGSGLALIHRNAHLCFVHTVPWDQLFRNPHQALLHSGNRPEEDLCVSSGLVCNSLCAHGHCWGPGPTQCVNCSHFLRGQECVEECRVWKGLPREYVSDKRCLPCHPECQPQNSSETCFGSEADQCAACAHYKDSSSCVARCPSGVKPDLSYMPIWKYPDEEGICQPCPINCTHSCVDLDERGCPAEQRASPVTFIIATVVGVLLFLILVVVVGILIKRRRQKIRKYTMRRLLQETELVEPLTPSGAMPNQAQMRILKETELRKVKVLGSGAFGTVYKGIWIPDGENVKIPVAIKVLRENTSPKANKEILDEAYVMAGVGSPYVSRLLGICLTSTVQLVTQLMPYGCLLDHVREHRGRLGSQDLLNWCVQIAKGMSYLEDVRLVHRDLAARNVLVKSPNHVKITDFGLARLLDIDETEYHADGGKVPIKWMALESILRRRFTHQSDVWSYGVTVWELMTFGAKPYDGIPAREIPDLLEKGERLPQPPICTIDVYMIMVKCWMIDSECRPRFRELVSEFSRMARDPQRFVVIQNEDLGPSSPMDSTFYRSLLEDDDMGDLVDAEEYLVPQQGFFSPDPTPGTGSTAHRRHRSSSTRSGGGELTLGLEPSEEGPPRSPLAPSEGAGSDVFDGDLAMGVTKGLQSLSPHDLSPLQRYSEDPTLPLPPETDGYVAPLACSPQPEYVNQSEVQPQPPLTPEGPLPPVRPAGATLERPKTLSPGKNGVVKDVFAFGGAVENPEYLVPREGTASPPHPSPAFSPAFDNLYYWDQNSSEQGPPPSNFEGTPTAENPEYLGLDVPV

## XMT-1519: anti-Her2 antibody disclosed in U.S. Pat. No. 9,555,112 and 9,738,720
Rat HER2
  Binding to rat HER2: does not bind
HER2
  Functional activity of HER2: inhibit the functional activity of HER2
